According to IntAct's records for PubMed 17891150:

B1: Trinucleotide repeat-containing gene 6B protein (Homo sapiens), Q9UPQ9-2 (parent)
chain: MQTNEGEVSEESSSKVEQEDFVMEGHGKTPPPGEESKQEKEQEREEQLMEDKKRKKEDKKKKEATQKVTEQKTKVPEVTKPSLSQPTAASPIGSSPSPPVNGGNNAKRVAVPNGQPPSAARYMPREVPPRFRCQQDHKVLLKRGQPPPPSCMLLGGGAGPPPCTAPGANPNNAQVTGALLQSESGTAPVWSKSTPPAPDNGTSAWGEPNESSPGWGEMDDTGASTTGWGNTPANAPNAMKPNSKSMQDGWGESDGPVTGARHPSWEEEEDGGVWNTTGSQGSASSHNSASWGQGGKKQMKCSLKGGNNDSWMNPLAKQFSNMGLLSQTEDNPSSKMDLSVGSLSDKKFDVDKRAMNLGDFNDIMRKDRSGFRPPNSKDMGTTDSGPYFEKGGSHGLFGNSTAQSRGLHTPVQPLNSSPSLRAQVPPQFISPQVSASMLKQFPNSGLSPGLFNVGPQLSPQQIAMLSQLPQIPQFQLACQLLLQQQQQQQLLQNQRKISQAVRQQQEQQLARMVSALQQQQQQQQRQPGMKHSPSHPVGPKPHLDNMVPNALNVGLPDLQTKGPIPGYGSGFSSGGMDYGMVGGKEAGTESRFKQWTSMMEGLPSVATQEANMHKNGAIVAPGKTRGGSPYNQFDIIPGDTLGGHTGPAGDSWLPAKSPPTNKIGSKSSNASWPPEFQPGVPWKGIQNIDPESDPYVTPGSVLGGTATSPIVDTDHQLLRDNTTGSNSSLNTSLPSPGAWPYSASDNSFTNVHSTSAKFPDYKSTWSPDPIGHNPTHLSNKMWKNHISSRNTTPLPRPPPGLTNPKPSSPWSSTAPRSVRGWGTQDSRLASASTWSDGGSVRPSYWLVLHNLTPQIDGSTLRTICMQHGPLLTFHLNLTQGTALIRYSTKQEAAKAQTALHMCVLGNTTILAEFATDDEVSRFLAQAQPPTPAATPSAPAAGWQSLETGQNQSDPVGPALNLFGGSTGLGQWSSSAGGSSGADLAGASLWGPPNYSSSLWGVPTVEDPHRMGSPAPLLPGDLLGGGSDSI

Variants of: B1
Details: with ago2_human AGO2, Q9UKV8
Chain of ago2_human AGO2, Q9UKV8 (Q9UKV8 whole entry): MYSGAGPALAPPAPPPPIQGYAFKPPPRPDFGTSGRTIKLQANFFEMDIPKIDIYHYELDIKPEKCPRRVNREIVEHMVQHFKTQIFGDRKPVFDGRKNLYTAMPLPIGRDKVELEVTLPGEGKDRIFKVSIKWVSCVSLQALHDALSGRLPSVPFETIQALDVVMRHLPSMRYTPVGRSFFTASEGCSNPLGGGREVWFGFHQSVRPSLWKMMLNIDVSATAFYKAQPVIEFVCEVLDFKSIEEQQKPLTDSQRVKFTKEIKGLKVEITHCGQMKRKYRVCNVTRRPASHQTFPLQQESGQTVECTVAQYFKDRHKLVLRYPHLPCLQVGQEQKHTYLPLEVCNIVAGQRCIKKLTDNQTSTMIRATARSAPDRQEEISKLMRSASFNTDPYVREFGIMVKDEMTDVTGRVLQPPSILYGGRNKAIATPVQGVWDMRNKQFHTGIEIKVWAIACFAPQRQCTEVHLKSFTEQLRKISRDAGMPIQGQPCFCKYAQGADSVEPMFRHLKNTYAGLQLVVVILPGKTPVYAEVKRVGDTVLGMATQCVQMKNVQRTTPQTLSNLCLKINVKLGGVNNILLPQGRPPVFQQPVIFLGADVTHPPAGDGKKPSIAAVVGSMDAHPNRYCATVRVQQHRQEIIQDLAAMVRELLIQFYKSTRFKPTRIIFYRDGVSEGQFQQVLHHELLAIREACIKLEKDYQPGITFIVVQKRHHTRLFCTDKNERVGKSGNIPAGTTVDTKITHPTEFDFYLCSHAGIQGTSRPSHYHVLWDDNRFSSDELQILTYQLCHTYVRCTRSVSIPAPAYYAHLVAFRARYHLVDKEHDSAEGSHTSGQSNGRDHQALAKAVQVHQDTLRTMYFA

| effect of a mutation on the interaction | Variant |
| --- | --- |
| disrupting interaction | W205A;W215A |
| disrupting interaction | W215F |
| disrupting interaction | W205F |
